# Reference: paper PMC10711433, “The forkhead DNA-binding domain binds specific G2-rich RNA sequences”
# T1: FOXL2 wt (recombinant) (UniProt P58012 1-376)
# T1 sequence: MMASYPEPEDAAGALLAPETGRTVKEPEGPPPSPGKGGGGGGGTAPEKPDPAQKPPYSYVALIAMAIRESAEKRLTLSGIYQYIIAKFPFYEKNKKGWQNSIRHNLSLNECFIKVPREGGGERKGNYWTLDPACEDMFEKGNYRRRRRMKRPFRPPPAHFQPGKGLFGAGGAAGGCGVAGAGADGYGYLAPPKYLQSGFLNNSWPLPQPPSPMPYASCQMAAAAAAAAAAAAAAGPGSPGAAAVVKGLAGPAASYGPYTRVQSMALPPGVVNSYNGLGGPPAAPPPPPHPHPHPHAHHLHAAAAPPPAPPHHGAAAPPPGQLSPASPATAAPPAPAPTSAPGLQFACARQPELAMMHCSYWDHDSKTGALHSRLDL
# T2: FOXL2 C134W (mutFOXL2) (UniProt P58012 1-376, C134W)
# T2 sequence: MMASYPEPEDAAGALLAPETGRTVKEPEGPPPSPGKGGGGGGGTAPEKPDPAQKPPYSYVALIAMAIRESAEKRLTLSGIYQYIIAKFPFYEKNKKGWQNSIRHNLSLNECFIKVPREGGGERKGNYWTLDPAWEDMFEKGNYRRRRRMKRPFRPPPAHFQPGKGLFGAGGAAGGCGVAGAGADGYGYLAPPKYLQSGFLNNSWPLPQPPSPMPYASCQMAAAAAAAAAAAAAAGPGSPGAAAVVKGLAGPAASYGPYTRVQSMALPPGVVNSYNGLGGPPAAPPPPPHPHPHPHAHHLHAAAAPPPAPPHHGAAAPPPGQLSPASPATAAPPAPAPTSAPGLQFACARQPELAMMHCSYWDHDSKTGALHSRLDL
# T3: FOXL2 (Homo sapiens, UniProt P58012 1-376)
# T3 sequence: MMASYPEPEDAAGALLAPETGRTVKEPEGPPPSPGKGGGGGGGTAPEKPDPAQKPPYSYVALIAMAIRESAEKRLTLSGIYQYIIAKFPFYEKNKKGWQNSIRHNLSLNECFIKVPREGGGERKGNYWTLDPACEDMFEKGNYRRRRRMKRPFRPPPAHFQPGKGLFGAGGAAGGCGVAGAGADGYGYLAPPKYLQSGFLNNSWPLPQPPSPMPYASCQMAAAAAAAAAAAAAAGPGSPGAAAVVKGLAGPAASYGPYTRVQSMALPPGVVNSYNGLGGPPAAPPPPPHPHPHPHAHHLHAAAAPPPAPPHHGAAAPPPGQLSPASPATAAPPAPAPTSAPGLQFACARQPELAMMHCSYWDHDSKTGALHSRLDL
# T4: FOXL2 C134W (Homo sapiens, UniProt P58012 1-376, C134W)
# T4 sequence: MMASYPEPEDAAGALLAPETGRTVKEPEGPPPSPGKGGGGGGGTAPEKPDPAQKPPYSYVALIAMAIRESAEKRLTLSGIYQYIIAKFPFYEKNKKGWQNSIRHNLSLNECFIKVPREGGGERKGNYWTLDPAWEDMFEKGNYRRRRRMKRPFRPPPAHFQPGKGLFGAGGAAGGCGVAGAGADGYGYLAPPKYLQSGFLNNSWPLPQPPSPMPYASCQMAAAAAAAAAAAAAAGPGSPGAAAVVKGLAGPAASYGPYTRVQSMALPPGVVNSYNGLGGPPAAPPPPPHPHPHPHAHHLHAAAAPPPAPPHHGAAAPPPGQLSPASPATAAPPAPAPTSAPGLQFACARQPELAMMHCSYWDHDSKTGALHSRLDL
# Tests used:
# FOXL2 wt (recombinant) [1] = biological target: T1, FOXL2 wt (recombinant); assay: pull-down competition + HTS; mixed with mutRF001; 10 mM HEPES (pH 7.5), 140 mM KCl, 25 mM NaCl, 1 mM MgCl2, 0.1 mM CaCl2, 0.001% IGEPAL, 100 nM yeast tRNA, 50 nM total aptamers, 37 C, 30 min; Li+ variant: 140 mM LiCl replaces KCl/NaCl; details: protein: recombinant; tags: His-SUMO tag cleaved; putative two-tier intramolecular G4
# FOXL2 C134W (mutFOXL2) [2] = biological target: T2, FOXL2 C134W (mutFOXL2); assay: pull-down competition + HTS; K+/Na+ buffer, tRNA competitor; 10 mM HEPES (pH 7.5), 140 mM KCl, 25 mM NaCl, 1 mM MgCl2, 0.1 mM CaCl2, 0.001% IGEPAL, 100 nM yeast tRNA, 50 nM total aptamers, 37 C, 30 min; Li+ variant: 140 mM LiCl replaces KCl/NaCl; details: protein: recombinant; tags: His-SUMO tag cleaved; putative two-tier intramolecular G4
# FOXL2 wt (recombinant) [3] = biological target: T1, FOXL2 wt (recombinant); assay: pull-down competition + HTS; mixed with RF000/RF002 DNA and scr50 RNA; 10 mM HEPES (pH 7.5), 140 mM KCl, 25 mM NaCl, 1 mM MgCl2, 0.1 mM CaCl2, 0.001% IGEPAL, 100 nM yeast tRNA, 50 nM total aptamers, 37 C, 30 min; Li+ variant: 140 mM LiCl replaces KCl/NaCl; details: protein: recombinant; tags: His-SUMO tag cleaved; putative two-tier intramolecular G4
# FOXL2 wt (recombinant) [4] = biological target: T1, FOXL2 wt (recombinant); assay: pull-down competition + HTS; K+/Na+ buffer; basically absent; 10 mM HEPES (pH 7.5), 140 mM KCl, 25 mM NaCl, 1 mM MgCl2, 0.1 mM CaCl2, 0.001% IGEPAL, 100 nM yeast tRNA, 50 nM total aptamers, 37 C, 30 min; Li+ variant: 140 mM LiCl replaces KCl/NaCl; details: protein: recombinant; tags: His-SUMO tag cleaved; unable to fold into G4
# FOXL2 C134W (mutFOXL2) [5] = biological target: T2, FOXL2 C134W (mutFOXL2); assay: as above; details: protein: recombinant; tags: His-SUMO tag cleaved; unable to fold into G4
# FOXL2 wt (recombinant) [6] = biological target: T1, FOXL2 wt (recombinant); assay: pull-down competition + HTS; K+/Na+ buffer, tRNA competitor; 10 mM HEPES (pH 7.5), 140 mM KCl, 25 mM NaCl, 1 mM MgCl2, 0.1 mM CaCl2, 0.001% IGEPAL, 100 nM yeast tRNA, 50 nM total aptamers, 37 C, 30 min; Li+ variant: 140 mM LiCl replaces KCl/NaCl; details: protein: recombinant; tags: His-SUMO tag cleaved; putative two-tier intramolecular G4
# FOXL2 wt (recombinant) [7] = biological target: T1, FOXL2 wt (recombinant); assay: pull-down competition + HTS; 140 mM LiCl, no K+/Na+; 10 mM HEPES (pH 7.5), 140 mM KCl, 25 mM NaCl, 1 mM MgCl2, 0.1 mM CaCl2, 0.001% IGEPAL, 100 nM yeast tRNA, 50 nM total aptamers, 37 C, 30 min; Li+ variant: 140 mM LiCl replaces KCl/NaCl; details: protein: recombinant; tags: His-SUMO tag cleaved; putative two-tier intramolecular G4
# FOXL2 = biological target: T3, FOXL2; assay: pulldown; 37 C; 10 mM HEPES, 140 mM KCl, 25 mM NaCl, 1 mM MgCl2, 0.1 mM CaCl2; equimolar mix, tRNA; details: tags: His-SUMO, cleaved
# FOXL2 C134W = biological target: T4, FOXL2 C134W; assay: as above; details: tags: His-SUMO, cleaved
Binder,binding result (FOXL2),binding result (FOXL2 C134W),also measured
CGUCAUUUGGUGGAUGGCGGAAGGAGGCGGAGGACGGGAAAUUCUGGAAA (structured_RNA) [RF001 RNA],–,–,binding signal (FOXL2 wt (recombinant) [1]): > 10 fold enrichment RF001/mutRF001 vs no-protein control; binding result (FOXL2 C134W (mutFOXL2) [2]): binds
AUCUGCGACUGGCUGGAGGUGGACGGAUGGCUGGAGGCGAAAUUGGCUUA (structured_RNA) [RF004 RNA],–,–,binding result (FOXL2 C134W (mutFOXL2) [2]): binds; binding result (FOXL2 wt (recombinant) [3]): binds
GGGACACUCGCUGUUUUCGAAAUUACCCUUUAUGCGCGGGUAUUGAACCA (ssRNA) [scr50 RNA],–,–,binding result (FOXL2 wt (recombinant) [4]): no binding; binding result (FOXL2 C134W (mutFOXL2) [5]): no binding
GAGGUAUUAAGAGGCGGAGGCGGAAGGAUGGCGGAGGACCGACAGAGAAG (structured_RNA) [RF000 RNA],–,–,binding result (FOXL2 wt (recombinant) [6]): binds; binding result (FOXL2 C134W (mutFOXL2) [2]): binds
UCGGACUUUGGUGGUUGGAGGACGGAUGGACGGAGGUUUAUUAGGCUCGC (structured_RNA) [RF002 RNA],–,–,binding result (FOXL2 wt (recombinant) [7]): binds; binding result (FOXL2 C134W (mutFOXL2) [2]): binds
RF000 (ssRNA) RNA: GGGAGAGUAUCCGUUGAGGCUGAGAGGUAUUAAGAGGCGGAGGCGGAAGGAUGGCGGAGGACCGACAGAGAAGAGAUCGGAAGAGCGUCGUGUAGG,binds,binds,–
mutRF001 (ssRNA) RNA: GGGAGAGUAUCCGUUGAGGCUGACGUCAUUUGAGUGAGUGAGCGAGAGAGAGUGCGUGAGAGACGAGAGCGUGAGAUCGGAAGAGCGUCGUGUAGG,no binding,–,–
RF001 (ssRNA) RNA: GGGAGAGUAUCCGUUGAGGCUGACGUCAUUUGGUGGAUGGCGGAAGGAGGCGGAGGACGGGAAAUUCUGGAAAAGAUCGGAAGAGCGUCGUGUAGG,binds,binds,–
RF002 (ssRNA) RNA: GGGAGAGUAUCCGUUGAGGCUGAUCGGACUUUGGUGGUUGGAGGACGGAUGGACGGAGGUUUAUUAGGCUCGCAGAUCGGAAGAGCGUCGUGUAGG,binds,binds,–
RF004 (ssRNA) RNA: GGGAGAGUAUCCGUUGAGGCUGAAUCUGCGACUGGCUGGAGGUGGACGGAUGGCUGGAGGCGAAAUUGGCUUAAGAUCGGAAGAGCGUCGUGUAGG,binds,binds,–
scr50 (ssRNA) RNA: GGGAGAGUAUCCGUUGAGGCUGAGGGACACUCGCUGUUUUCGAAAUUACCCUUUAUGCGCGGGUAUUGAACCAAGAUCGGAAGAGCGUCGUGUAGG,no binding,no binding,–
RF000 DNA (ssDNA) DNA: GGGAGAGTATCCGTTGAGGCTGAGAGGTATTAAGAGGCGGAGGCGGAAGGATGGCGGAGGACCGACAGAGAAGAGATCGGAAGAGCGTCGTGTAGG,no binding,–,–
RF001 DNA (ssDNA) DNA: GGGAGAGTATCCGTTGAGGCTGACGTCATTTGGTGGATGGCGGAAGGAGGCGGAGGACGGGAAATTCTGGAAAAGATCGGAAGAGCGTCGTGTAGG,no binding,–,–
RF002 DNA (ssDNA) DNA: GGGAGAGTATCCGTTGAGGCTGATCGGACTTTGGTGGTTGGAGGACGGATGGACGGAGGTTTATTAGGCTCGCAGATCGGAAGAGCGTCGTGTAGG,no binding,–,–
RF004 DNA (ssDNA) DNA: GGGAGAGTATCCGTTGAGGCTGAATCTGCGACTGGCTGGAGGTGGACGGATGGCTGGAGGCGAAATTGGCTTAAGATCGGAAGAGCGTCGTGTAGG,no binding,–,–
